The MegaScale stability set (Tsuboyama et al. 2023)

B1: r16_88_TrROS_Hall (parent)
chain: EVIELKIKFKTPEQREKLKEIAKKLNAEVVEEKDGEVIIRFKTPEQAERALKEAEKLGAEVEL

Variants of: B1
Assay: folding stability dG (cDNA display proteolysis); higher = more stable
Conditions: PBS, room temperature

Q: Which “folding stability dG” value does the source give for EVIELKIKFKTPEQREKLKEIAKKLNAEVVEEKDGEWIIRFKTPEQAERALKEAEKLGAEVEL here?
A: 18.2 kJ/mol

Q: With EVIELKIKFKTPEQREKLKEIAKKLNAEVVEEKDGEGIIRFKTPEQAERALKEAEKLGAEVEL as the variant, how does the “folding stability dG” value read?
A: 15.2 kJ/mol

Q: Which “folding stability dG” value does the source give for EVIELKIKFKTPEQREKLKEIAKKLNAEVVEEKDGEKIIRFKTPEQAERALKEAEKLGAEVEL here?
A: 13.9 kJ/mol

Q: Which “folding stability dG” value does the source give for EVIELKIKFKTPEQREKLKEIAKKLNAEVVEEKDGEAIIRFKTPEQAERALKEAEKLGAEVEL here?
A: 17.1 kJ/mol

Q: For EVIELKIKFKTPEQREKLKEIAKKLNAEVVEEKDGEIIIRFKTPEQAERALKEAEKLGAEVEL, which “folding stability dG” value is on record?
A: 18.4 kJ/mol

Q: Which “folding stability dG” value does the source give for EVIELKIKFKTPEQREKLKEIAKKLNAEVVEEKDGERIIRFKTPEQAERALKEAEKLGAEVEL here?
A: 12.7 kJ/mol

Q: With EVIELKIKFKTPEQREKLKEIAKKLNAEVVEEKDGEQIIRFKTPEQAERALKEAEKLGAEVEL as the variant, how does the “folding stability dG” value read?
A: 17 kJ/mol

Q: For EVIELKIKFKTPEQREKLKEIAKKLNAEVVEEKDGEEIIRFKTPEQAERALKEAEKLGAEVEL, which “folding stability dG” value is on record?
A: 14.1 kJ/mol

Q: For EVIELKIKFKTPEQREKLKEIAKKLNAEVVEEKDGETIIRFKTPEQAERALKEAEKLGAEVEL, which “folding stability dG” value is on record?
A: 18.1 kJ/mol

Q: Which “folding stability dG” value does the source give for EVIELKIKFKTPEQREKLKEIAKKLNAEVVEEKDGEDIIRFKTPEQAERALKEAEKLGAEVEL here?
A: 12.7 kJ/mol

Q: Which “folding stability dG” value does the source give for EVIELKIKFKTPEQREKLKEIAKKLNAEVVEEKDGEHIIRFKTPEQAERALKEAEKLGAEVEL here?
A: 18.3 kJ/mol

Q: Which “folding stability dG” value does the source give for EVIELKIKFKTPEQREKLKEIAKKLNAEVVEEKDGEMIIRFKTPEQAERALKEAEKLGAEVEL here?
A: 18.1 kJ/mol

Q: With EVIELKIKFKTPEQREKLKEIAKKLNAEVVEEKDGEYIIRFKTPEQAERALKEAEKLGAEVEL as the variant, how does the “folding stability dG” value read?
A: 17.3 kJ/mol

Q: Which “folding stability dG” value does the source give for EVIELKIKFKTPEQREKLKEIAKKLNAEVVEEKDGEPIIRFKTPEQAERALKEAEKLGAEVEL here?
A: 10.4 kJ/mol

Q: For EVIELKIKFKTPEQREKLKEIAKKLNAEVVEEKDGELIIRFKTPEQAERALKEAEKLGAEVEL, which “folding stability dG” value is on record?
A: 18.4 kJ/mol

Q: With EVIELKIKFKTPEQREKLKEIAKKLNAEVVEEKDGEFIIRFKTPEQAERALKEAEKLGAEVEL as the variant, how does the “folding stability dG” value read?
A: 19 kJ/mol

Q: Which “folding stability dG” value does the source give for EVIELKIKFKTPEQREKLKEIAKKLNAEVVEEKDGESIIRFKTPEQAERALKEAEKLGAEVEL here?
A: 17.5 kJ/mol

Q: Which “folding stability dG” value does the source give for EVIELKIKFKTPEQREKLKEIAKKLNAEVVEEKDGECIIRFKTPEQAERALKEAEKLGAEVEL here?
A: 17.5 kJ/mol

Q: For EVIELKIKFKTPEQREKLKEIAKKLNAEVVEEKDGENIIRFKTPEQAERALKEAEKLGAEVEL, which “folding stability dG” value is on record?
A: 14.7 kJ/mol

Q: With EVIELKIKFKTPEQREKLKEIAKKLNAEVVEEKDGEVCIRFKTPEQAERALKEAEKLGAEVEL as the variant, how does the “folding stability dG” value read?
A: 18 kJ/mol

Q: For EVIELKIKFKTPEQREKLKEIAKKLNAEVVEEKDGEVKIRFKTPEQAERALKEAEKLGAEVEL, which “folding stability dG” value is on record?
A: 16 kJ/mol

Q: For EVIELKIKFKTPEQREKLKEIAKKLNAEVVEEKDGEVYIRFKTPEQAERALKEAEKLGAEVEL, which “folding stability dG” value is on record?
A: 19.9 kJ/mol

Q: With EVIELKIKFKTPEQREKLKEIAKKLNAEVVEEKDGEVQIRFKTPEQAERALKEAEKLGAEVEL as the variant, how does the “folding stability dG” value read?
A: 18.1 kJ/mol

Q: For EVIELKIKFKTPEQREKLKEIAKKLNAEVVEEKDGEVTIRFKTPEQAERALKEAEKLGAEVEL, which “folding stability dG” value is on record?
A: 18.6 kJ/mol

Q: Which “folding stability dG” value does the source give for EVIELKIKFKTPEQREKLKEIAKKLNAEVVEEKDGEVWIRFKTPEQAERALKEAEKLGAEVEL here?
A: 20.8 kJ/mol

Q: Which “folding stability dG” value does the source give for EVIELKIKFKTPEQREKLKEIAKKLNAEVVEEKDGEVDIRFKTPEQAERALKEAEKLGAEVEL here?
A: 16 kJ/mol

Q: Which “folding stability dG” value does the source give for EVIELKIKFKTPEQREKLKEIAKKLNAEVVEEKDGEVAIRFKTPEQAERALKEAEKLGAEVEL here?
A: 17.8 kJ/mol

Q: Which “folding stability dG” value does the source give for EVIELKIKFKTPEQREKLKEIAKKLNAEVVEEKDGEVFIRFKTPEQAERALKEAEKLGAEVEL here?
A: 20.8 kJ/mol

Q: Which “folding stability dG” value does the source give for EVIELKIKFKTPEQREKLKEIAKKLNAEVVEEKDGEVRIRFKTPEQAERALKEAEKLGAEVEL here?
A: 17.9 kJ/mol

Q: Which “folding stability dG” value does the source give for EVIELKIKFKTPEQREKLKEIAKKLNAEVVEEKDGEVNIRFKTPEQAERALKEAEKLGAEVEL here?
A: 17.7 kJ/mol

Q: With EVIELKIKFKTPEQREKLKEIAKKLNAEVVEEKDGEVSIRFKTPEQAERALKEAEKLGAEVEL as the variant, how does the “folding stability dG” value read?
A: 17.8 kJ/mol

Q: Which “folding stability dG” value does the source give for EVIELKIKFKTPEQREKLKEIAKKLNAEVVEEKDGEVHIRFKTPEQAERALKEAEKLGAEVEL here?
A: 19.4 kJ/mol

Q: With EVIELKIKFKTPEQREKLKEIAKKLNAEVVEEKDGEVEIRFKTPEQAERALKEAEKLGAEVEL as the variant, how does the “folding stability dG” value read?
A: 15.4 kJ/mol

Q: Which “folding stability dG” value does the source give for EVIELKIKFKTPEQREKLKEIAKKLNAEVVEEKDGEVLIRFKTPEQAERALKEAEKLGAEVEL here?
A: 17.8 kJ/mol

Q: With EVIELKIKFKTPEQREKLKEIAKKLNAEVVEEKDGEVVIRFKTPEQAERALKEAEKLGAEVEL as the variant, how does the “folding stability dG” value read?
A: 18.6 kJ/mol

Q: With EVIELKIKFKTPEQREKLKEIAKKLNAEVVEEKDGEVGIRFKTPEQAERALKEAEKLGAEVEL as the variant, how does the “folding stability dG” value read?
A: 15.8 kJ/mol

Q: Which “folding stability dG” value does the source give for EVIELKIKFKTPEQREKLKEIAKKLNAEVVEEKDGEVPIRFKTPEQAERALKEAEKLGAEVEL here?
A: 4.97 kJ/mol

Q: Which “folding stability dG” value does the source give for EVIELKIKFKTPEQREKLKEIAKKLNAEVVEEKDGEVMIRFKTPEQAERALKEAEKLGAEVEL here?
A: 18.9 kJ/mol

Q: Which “folding stability dG” value does the source give for EVIELKIKFKTPEQREKLKEIAKKLNAEVVEEKDGRVIIRFKTPEQAERALKEAEKLGAEVEL here?
A: 19.3 kJ/mol

Q: With EVIELKIKFKTPEQREKLKEIAKKLNAEVVEEKDGWVIIRFKTPEQAERALKEAEKLGAEVEL as the variant, how does the “folding stability dG” value read?
A: 19.7 kJ/mol

Q: For EVIELKIKFKTPEQREKLKEIAKKLNAEVVEEKDGDVIIRFKTPEQAERALKEAEKLGAEVEL, which “folding stability dG” value is on record?
A: 18.8 kJ/mol

Q: For EVIELKIKFKTPEQREKLKEIAKKLNAEVVEEKDGPVIIRFKTPEQAERALKEAEKLGAEVEL, which “folding stability dG” value is on record?
A: 17 kJ/mol
